Results reported in the RNAGym collection of RNA variant scans (doi:10.1021/acssynbio.7b00057).

B1: Pistol ribozyme (parent)
chain: GGGUCGUUGUUCCAUAAUCGCGUGGAUAUGGCACGCAAGUUUCUACCGGGCACCGUAAAUGUCCGACUGGAGCCGUUCGGGCGGCUAUAAACAGACCUCAGGCCCGAAGCGUGGCGGCACCUGCCGCCGGUGGUAAAAAAGAUCGGAAGAGCACACGUCU

Variants of: B1
Assay: aptazyme ON/OFF ratio, guanine; higher = stronger switching; co-transcriptional cleavage with and without guanine

| Variant | aptazyme ON/OFF ratio |
| --- | --- |
| U7C U8A G9A U10C U11A C12G C13U | 1.18 |
| U7C U8A G9A U10C U11A C12G C13G | 1.17 |
| U7C U8A G9A U10G U11A C13U | 1.03 |
| U7C U8A G9A U10G U11A C13G | 1.05 |
| U7C U8A G9A U10G U11A C13A | 1.04 |
| U7C U8A G9A U10G C12A C13U | 1.25 |
| U7C U8A G9A U10G C12A C13G | 1.15 |
| U7C U8A G9A U10G C12A C13A | 1.14 |
| U7C G9U U11G C12A C13U | 1.14 |
| U7C G9U U11G C12A C13A | 1.19 |
| U7C G9U U11G C12A C13G | 1.1 |
| U7C U8A G9A U10A C13G | 1.09 |
| U7C U8A G9A U10A C13A | 1.15 |
| U7C U8A G9A U10A C13U | 1.26 |
| U7C U8A G9A U10G C12U C13A | 1.26 |
| U7C U8A G9A U10G C12U C13U | 0.977 |
| U7C U8A G9A U10G C12U C13G | 1.14 |
| U7C U8A G9A U10G U11A | 1.01 |
| U7C G9U U10G U11A C12U | 1.08 |
| U7C G9U U10G U11A C12A | 1.2 |
| U7C G9U U10G U11A C12G | 1.27 |
| U7C G9U U11C C12U C13G | 1.05 |
| U7C G9U U11C C12U C13A | 1.12 |
| U7C G9U U11C C12U C13U | 1.13 |

| Variant | aptazyme ON/OFF ratio |
| --- | --- |
| U7C G9U U10G | 1.38 |
| U7C U8A G9A U10A U11A C12G C13G | 1.28 |
| U7C U8A G9A U10A U11A C12G C13A | 1.2 |
| U7C U8A G9A U10A U11A C12G C13U | 1.22 |
| U7C U8A G9A U10C U11C C12U C13U | 1.04 |
| U7C U8A G9A U10C U11C C12U C13A | 1.03 |
| U7C U8A G9A U10C U11C C12U C13G | 1.04 |
| U7C U8A G9A U10C C13G | 1.05 |
| U7C U8A G9A U10C C13A | 1.03 |
| U7C U8A G9A U10C C13U | 1.51 |
| U7C G9U U10C U11G C12G | 1.1 |
| U7C G9U U10C U11G C12U | 1.22 |
| U7C G9U U10C U11G C12A | 1.09 |
| U7C G9U U10C U11C C13U | 1 |
| U7C G9U U10C U11C C13A | 1 |
| U7C G9U U10C U11C C13G | 1.06 |
| U7C U8A G9A U10A U11G C12G C13G | 1.28 |
| U7C U8A G9A U10A U11G C12G C13A | 1.26 |
| U7C U8A G9A U10A U11G C12G C13U | 1.18 |
| U7C U8A G9A U10C U11A C12A | 1.12 |
| U7C U8A G9A U10C U11A C12U | 1.28 |
| U7C U8A G9A U10C U11A C12G | 1.14 |
| U7C U8A G9A U10C U11G C12G C13U | 1.11 |
| U7C U8A G9A U10C U11G C12G C13G | 1.12 |

| Variant | aptazyme ON/OFF ratio |
| --- | --- |
| U7C U8A G9A U10C U11G C12G C13A | 1.24 |
| U7C U8A G9A U10A C12U C13A | 1.15 |
| U7C U8A G9A U10A C12U C13U | 1.28 |
| U7C U8A G9A U10A C12U C13G | 1.14 |
| U7C U8A G9A U10A U11C C12G C13A | 1.14 |
| U7C U8A G9A U10A U11C C12G C13G | 1.35 |
| U7C U8A G9A U10A U11C C12G C13U | 1.18 |
| U7C G9U U10G U11A C12A C13U | 1.44 |
| U7C G9U U10G U11A C12A C13A | 1.2 |
| U7C G9U U10G U11A C12A C13G | 1.13 |
| U7C U8A G9A U10A U11A C13U | 1.1 |
| U7C U8A G9A U10A U11A C13G | 1.12 |
| U7C U8A G9A U10A U11A C13A | 1.16 |
| U7C U8A G9A U10C | 3.41 |
| U7C U8A G9A U10G | 1.38 |
| U7C U8A G9A U10A | 1.69 |
| U7C G9U U10G U11C C12A C13U | 1.17 |
| U7C G9U U10G U11C C12A C13A | 1.17 |
| U7C G9U U10G U11C C12A C13G | 1.17 |
| U7C U8A G9A U10G U11A C12G | 1.16 |
| U7C U8A G9A U10G U11A C12A | 1.15 |
| U7C U8A G9A U10G U11A C12U | 1.01 |
| U7C U8A C12U C13A | 1.17 |
| U7C U8A C12U C13U | 1.32 |

| Variant | aptazyme ON/OFF ratio |
| --- | --- |
| U7C U8A C12U C13G | 1.28 |
| U7C U8A G9A U10A U11C C12A C13A | 1.17 |
| U7C U8A G9A U10A U11C C12A C13U | 1.16 |
| U7C U8A G9A U10A U11C C12A C13G | 1.12 |
| U7C G9U U11C C12A C13U | 1.14 |
| U7C G9U U11C C12A C13A | 1.15 |
| U7C G9U U11C C12A C13G | 1.07 |
| U7C U8A G9A U10A C12A C13U | 1.26 |
| U7C U8A G9A U10A C12A C13A | 1.19 |
| U7C U8A G9A U10A C12A C13G | 1.18 |
| U7C U8A C12U | 1.68 |
| U7C U8A C12A | 1.3 |
| U7C U8A C12G | 1.37 |
| U7C U8A G9A U10A U11G C12A C13U | 1.18 |
| U7C U8A G9A U10A U11G C12A C13G | 1.09 |
| U7C U8A G9A U10A U11G C12A C13A | 1.11 |
| U7C G9U U10C U11C C12A C13G | 1.08 |
| U7C G9U U10C U11C C12A C13U | 1.01 |
| U7C G9U U10C U11C C12A C13A | 1.04 |
| U7C U8A G9A U10A U11A C12A C13A | 1.24 |
| U7C U8A G9A U10A U11A C12A C13U | 1.18 |
| U7C U8A G9A U10A U11A C12A C13G | 1.18 |
| U7C G9U U11A C12A C13A | 1.25 |
| U7C G9U U11A C12A C13G | 1.1 |

| Variant | aptazyme ON/OFF ratio |
| --- | --- |
| U7C G9U U11A C12A C13U | 1.29 |
| U7C U8A G9A U10A U11A C12U C13A | 1.2 |
| U7C U8A G9A U10A U11A C12U C13G | 1.17 |
| U7C U8A G9A U10A U11A C12U C13U | 1.13 |
| U7C G9U U11A C12U C13U | 1.2 |
| U7C G9U U11A C12U C13G | 1.14 |
| U7C G9U U11A C12U C13A | 1.32 |
| U7C G9U U10G U11G C12A C13U | 1.17 |
| U7C G9U U10G U11G C12A C13G | 1.1 |
| U7C G9U U10G U11G C12A C13A | 1.1 |
| U7C U8A G9A U10A C12A | 1.19 |
| U7C U8A G9A U10A C12U | 1.22 |
| U7C U8A G9A U10A C12G | 1.21 |
| U7C U8A | 3.27 |
| U7C G9U U10G U11C C12U C13U | 1.19 |
| U7C G9U U10G U11C C12U C13G | 1.05 |
| U7C G9U U10G U11C C12U C13A | 1.19 |
| U7C U8A G9A U10C U11A C12A C13G | 1.1 |
| U7C U8A G9A U10C U11A C12A C13A | 1.13 |
| U7C U8A G9A U10C U11A C12A C13U | 1.15 |
| U7C U8A G9A U10C U11G C12U | 1.22 |
| U7C U8A G9A U10C U11G C12G | 1.31 |
| U7C U8A G9A U10C U11G C12A | 1.05 |
| U7C G9U U10C U11G C12U C13G | 1.15 |

| Variant | aptazyme ON/OFF ratio |
| --- | --- |
| U7C G9U U10C U11G C12U C13U | 1.16 |
| U7C G9U U10C U11G C12U C13A | 1.14 |
| U7C G9U U10G C13G | 1.06 |
| U7C G9U U10G C13A | 1.25 |
| U7C G9U U10G C13U | 1.37 |
| U7C U8A G9A U10C U11A | 1.23 |
| U7C U8A G9A U10C U11C | 1.02 |
| U7C U8A G9A U10C U11G | 1.32 |
| U7C U8A G9A U10C C12U C13A | 1.11 |
| U7C U8A G9A U10C C12U C13U | 1.26 |
| U7C U8A G9A U10C C12U C13G | 1.11 |
| U7C G9U U11A C12A | 1.36 |
| U7C G9U U11A C12G | 1.33 |
| U7C G9U U11A C12U | 1.39 |
| U7C U8A G9A U10C U11A C13G | 1.08 |
| U7C U8A G9A U10C U11A C13U | 1.16 |
| U7C U8A G9A U10C U11A C13A | 1.2 |
| U7C U8A G9A C12G | 1.26 |
| U7C U8A G9A C12A | 1.32 |
| U7C U8A G9A C12U | 1.3 |
| U7C U8A G9A U10A U11A | 1.22 |
| U7C U8A G9A U10A U11G | 1.31 |
| U7C U8A G9A U10A U11C | 1.02 |
| U7C U8A G9A U10C C12G C13G | 1.1 |

| Variant | aptazyme ON/OFF ratio |
| --- | --- |
| U7C U8A G9A U10C C12G C13A | 1.13 |
| U7C U8A G9A U10C C12G C13U | 1.19 |
| U7C U8A G9A U10C U11C C12G C13U | 1.07 |
| U7C U8A G9A U10C U11C C12G C13A | 1.13 |
| U7C U8A G9A U10C U11C C12G C13G | 1.17 |
| U7C U8A G9A U10G U11A C12U C13A | 1.11 |
| U7C U8A G9A U10G U11A C12U C13G | 1.12 |
| U7C U8A G9A U10G U11A C12U C13U | 1.06 |
| U7C G9U U11A C13G | 1.03 |
| U7C G9U U11A C13A | 1.2 |
| U7C G9U U11A C13U | 1.25 |
| U7C G9U U10G C12U C13U | 1.69 |
| U7C G9U U10G C12U C13G | 1.15 |
| U7C G9U U10G C12U C13A | 1.2 |
| U7C U8A G9A U10G C12G C13A | 1.1 |
| U7C U8A G9A U10G C12G C13G | 1.04 |
| U7C U8A G9A U10G C12G C13U | 1.27 |
| U7C G9U U11C C13A | 1.05 |
| U7C G9U U11C C13U | 1.05 |
| U7C G9U U11C C13G | 1.02 |
| U7C U8A G9A U10C U11C C12A C13A | 1.03 |
| U7C U8A G9A U10C U11C C12A C13G | 1.05 |
| U7C U8A G9A U10C U11C C12A C13U | 1.09 |
